# In article PMC12682122:
# Molecular target: alpha-enolase (baker's yeast) (baker's yeast) (UniProt P00924)
# Test: cross-linking; 1 mg/ml alpha-enolase in PBS with BVSS-Me, BVSS-Et, BVSS-Ph, Alkyne-BVSC or DSBSO (1 mM, 1 h, 37 °C; DSBSO 30 min RT); SDS-PAGE, Coomassie stain; DMSO as negative control
substance,measurement,value
alpha-enolase (baker's yeast) (from UniProt P00924 1-437) (enzyme),stoichiometry N,2
